Measurements: publication PMC5118228 (EJNMMI Research, 2016)

Legend:
in vivo [1] = settings: male, athymic nu/nu, mouse, iv, 0.3 nmol, total radioactivity
[2] = tested on: neutrophil gelatinase-associated lipocalin (NGAL); assay: Serum NGAL by ELISA (kidney injury biomarker); assay type: in vivo, mice
Method: MTD was defined as the highest dose given to the animals allowing 100% survival with no significant weight loss >15% throughout the experiment. Nontumor-bearing mice were randomly divided into seven cohorts used to evaluate MTD, six treatments and one control (n = 8/cohort); see Table 1. […] Control mice received DOTATATE (4 × 0.3 nmol) on four consecutive days. The animals were followed for 90 days. Serum was analyzed for the biomarker neutrophil gelatinase-associated lipocalin (NGAL) using ELISA (R&D Systems, 450 nm).

in vivo [3] = assay: in vivo; set-up: species or system mice; settings: male, athymic nu/nu, mouse, iv, 0.3 nmol, total radioactivity
Method: Mice were euthanized at 10 and 60 min p.i. […] Blood, organs, and femur-containing femur marrow were collected and counted as described previously. The uptake was expressed as percentage of injected activity per gram of tissue (%IA/g).

AR42J tumor = settings: low-dose (16.8 ± 1.3 MBq) and high-dose (33.1 ± 3.7 MBq); AR42J tumor-bearing mice
Method: Athymic male nu/nu mice (Tachonic), 6–8 weeks old, were used in all studies. Tumor models were established by inoculating 5 × 10^6 rat pancreatic tumor AR42J cells (American Type Culture Collection) with high SSTR2 expression into the right hind flank of the animals. After 3 weeks, the tumor size reached approximately 200 mm^3. All animal experiments were carried out following Institutional Animal Care and Use Committee-approved protocol.
Toxicity and therapeutic efficacy were investigated in 18 animals (n = 6/cohort): control, low-dose (cumulative 16.8 ± 1.3 MBq), and high-dose (cumulative 33.1 ± 3.7 MBq) cohorts. Treatment started 23 days after xenograft inoculation. Control mice received in total 4 × 0.3 nmol DOTATATE on two consecutive days. Two injections of 0.3 nmol DOTATATE per day were given, with a time interval of at least 6 h. […] The high-dose cohort received four doses on two consecutive days, twice a day with a time interval of at least 6 h. […] Animals were monitored for 30 days starting on the day of treatment. Tumors were measured by caliper, and animals were weighed at least twice weekly. The endpoints chosen were weight loss >15% and tumor volume >2000 mm^3. […]

[4] = tested on: tumor and normal organs of mice; assay: Radiation dosimetry (MIRD schema, Olinda/EXM spherical S-factors); assay type: in vivo; settings: for mean radiation absorbed tumor dose: predicted from ^111In-DOTATATE tumor uptake, AR42J tumor-bearing mice; for mean radiation absorbed dose for femur: high-dose cohort
Method: Saturation of receptor-specific tumor uptake was investigated by determining the kinetics of the tumor uptake with increasing injected mass of peptide. The time-activity curves for the tumor and normal organs were fitted by single-exponential functions using Prism-5 (GraphPad). Goodness of fit was analyzed with the Pearson correlation coefficient R ^2 > 0.8. Both F test and the Aikake information criterion were used to decide on the complexity of the curves.
Dosimetry was performed according to the MIRD schema by using the spherical nodes S-factors from the Olinda/EXM software. S-factors were interpolated from the actual weight of the organs and tissue. All organs and tissue were assumed to be spherical with a density of […]. Mean radiation absorbed doses were obtained as a function-injected mass of peptide, assuming a homogeneous distribution in the tumor and organs. […] Owing to the short path length of α-particles, only the self-dose within each organ was included. The threshold for lethality was determined with renal absorbed dose and injected activity as indicators. Logistic regression analysis was used to determine the LD50 for presumed renal toxicity-related death.

[5] = with L-lysine (35 mg), tumor-bearing mice, calculated

Q: Which tissue uptake at 1 h (in vivo [1]; Renal activity) does the source give for C[C@@H](O)[C@H](NC(=O)[C@@H]1CSSC[C@H](NC(=O)[C@@H](Cc2ccccc2)NC(=O)CN2CCN(CC(=O)O)CCN(CC(=O)O)CCN(CC(=O)O)CC2)C(=O)N[C@@H](Cc2ccc(O)cc2)C(=O)N[C@H](Cc2c[nH]c3ccccc23)C(=O)N[C@@H](CCCCN)C(=O)N[C@@H]([C@@H](C)O)C(=O)N1)C(=O)O [^213Bi-DOTATATE, metal not drawn] here?
A: 17.4 ± 2.2 %ID/g

Q: And the tissue uptake at 10 min (in vivo [1]; Tumor uptake)?
A: 5.3 ± 2.8 %ID/g

Q: And the tissue uptake at 1 h (in vivo [1]; Tumor uptake)?
A: 6.5 ± 2.3 %ID/g

Q: And the NGAL level ([2]; high-dose(−), 28.7 ± 1.2 MBq, without L-lysine, serum ELISA)?
A: 15.8 ± 3.5 ng/mL

Q: And the “nephrotoxicity (NGAL)” value ([2]; low-dose(−) and low-dose(+) cohorts)?
A: No nephrotoxicity

Q: What about the tissue uptake at 10 min (in vivo [3]; renal uptake) of the same compound?
A: 30.8 ± 5.8 %ID/g

Q: And the tissue uptake at 1 h (in vivo [3]; renal uptake)?
A: 18.4 ± 1.8 %ID/g

Q: And the tissue uptake at 1 h (in vivo [3]; stomach uptake)?
A: 1.6 ± 0.5 %ID/g

Q: And the tumor volume (AR42J tumor)?
A: significantly decreased

Q: What about the “mean radiation absorbed tumor dose” value ([4]; 0.1 nmol peptide) of the same compound?
A: approximately 0.5 Gy/MBq

Q: What about the “mean radiation absorbed tumor dose” value ([4]; 0.3 nmol peptide) of the same compound?
A: approximately 0.5 Gy/MBq

Q: What about the “mean radiation absorbed dose for femur” value ([4]; with pre-treatment of L-lysine) of the same compound?
A: 1.3 Gy

Q: And the “mean radiation absorbed dose for femur” value ([4]; without L-lysine)?
A: 1.0 Gy

Q: What about the “mean renal absorbed dose” value ([4]; high-dose(+) cohort, 28.3 ± 0.8 MBq) of the same compound?
A: 16 Gy

Q: And the “time-integrated activity coefficient in the kidney” value ([4]; mice pre-treated with L-lysine)?
A: 6.0 ± 2.4 min/g

Q: What about the “time-integrated activity coefficient in the kidney” value ([4]; mice without pre-treatment of L-lysine) of the same compound?
A: 12.0 ± 3.7 min/g

Q: What about the renal absorbed dose ([4]; nontumor-bearing animals, with L-lysine) of the same compound?
A: 0.50 Gy/MBq

Q: What about the renal absorbed dose ([4]; nontumor-bearing animals, without L-lysine) of the same compound?
A: 1.0 Gy/MBq

Q: What about the renal absorbed dose ([4]; tumor-bearing animals, with L-lysine) of the same compound?
A: 0.56 Gy/MBq

Q: What about the renal absorbed dose ([4]; tumor-bearing animals, without L-lysine) of the same compound?
A: 1.1 Gy/MBq

Q: What about the “Radiation absorbed dose per administered activity, Adrenals, Total α” value [4, 5] of the same compound?
A: 5.60E-02 Gy/MBq

Q: And the “Radiation absorbed dose per administered activity, Adrenals, Total β” value [4, 5]?
A: 2.00E-03 Gy/MBq

Q: What about the “Radiation absorbed dose per administered activity, Adrenals, ^209Pb β” value [4, 5] of the same compound?
A: 1.30E-04 Gy/MBq

Q: And the “Radiation absorbed dose per administered activity, Adrenals, ^209Tl β + γ” value [4, 5]?
A: 4.00E-05 Gy/MBq

Q: And the “Radiation absorbed dose per administered activity, Adrenals, ^213Bi α” value [4, 5]?
A: 8.00E-04 Gy/MBq

Q: And the “Radiation absorbed dose per administered activity, Adrenals, ^213Bi β” value [4, 5]?
A: 1.80E-03 Gy/MBq

Q: What about the “Radiation absorbed dose per administered activity, Adrenals, ^213Po α” value [4, 5] of the same compound?
A: 5.49E-02 Gy/MBq

Q: And the “Radiation absorbed dose per administered activity, Blood, Total α” value [4, 5]?
A: 1.09E-01 Gy/MBq

Q: And the “Radiation absorbed dose per administered activity, Blood, Total β” value [4, 5]?
A: 6.00E-03 Gy/MBq

Q: What about the “Radiation absorbed dose per administered activity, Blood, ^209Pb β” value [4, 5] of the same compound?
A: 2.00E-04 Gy/MBq

Q: What about the “Radiation absorbed dose per administered activity, Blood, ^209Tl β + γ” value [4, 5] of the same compound?
A: 1.40E-04 Gy/MBq

Q: And the “Radiation absorbed dose per administered activity, Blood, ^213Bi α” value [4, 5]?
A: 1.60E-03 Gy/MBq

Q: What about the “Radiation absorbed dose per administered activity, Blood, ^213Bi β” value [4, 5] of the same compound?
A: 5.20E-03 Gy/MBq

Q: What about the “Radiation absorbed dose per administered activity, Femur, Total α” value [4, 5] of the same compound?
A: 4.20E-02 Gy/MBq

Q: And the “Radiation absorbed dose per administered activity, Femur, Total β” value [4, 5]?
A: 2.00E-03 Gy/MBq

Q: And the “Radiation absorbed dose per administered activity, Femur, ^209Pb β” value [4, 5]?
A: 1.00E-04 Gy/MBq

Q: And the “Radiation absorbed dose per administered activity, Femur, ^209Tl β + γ” value [4, 5]?
A: 4.00E-05 Gy/MBq

Q: What about the “Radiation absorbed dose per administered activity, Femur, ^213Bi α” value [4, 5] of the same compound?
A: 6.00E-04 Gy/MBq

Q: What about the “Radiation absorbed dose per administered activity, Femur, ^213Bi β” value [4, 5] of the same compound?
A: 1.60E-03 Gy/MBq

Q: And the “Radiation absorbed dose per administered activity, Femur, ^213Po α” value [4, 5]?
A: 4.13E-02 Gy/MBq

Q: And the “Radiation absorbed dose per administered activity, Kidney, Total α” value [4, 5]?
A: 5.33E-01 Gy/MBq

Q: And the “Radiation absorbed dose per administered activity, Kidney, Total β” value [4, 5]?
A: 2.60E-02 Gy/MBq

Q: What about the “Radiation absorbed dose per administered activity, Kidney, ^209Pb β” value [4, 5] of the same compound?
A: 1.40E-03 Gy/MBq

Q: And the “Radiation absorbed dose per administered activity, Kidney, ^209Tl β + γ” value [4, 5]?
A: 6.30E-04 Gy/MBq

Q: And the “Radiation absorbed dose per administered activity, Kidney, ^213Bi α” value [4, 5]?
A: 8.00E-03 Gy/MBq

Q: And the “Radiation absorbed dose per administered activity, Kidney, ^213Bi β” value [4, 5]?
A: 2.37E-02 Gy/MBq

Q: And the “Radiation absorbed dose per administered activity, Kidney, ^213Po α” value [4, 5]?
A: 5.25E-01 Gy/MBq

Q: What about the “Radiation absorbed dose per administered activity, Pancreas, Total α” value [4, 5] of the same compound?
A: 1.36E-01 Gy/MBq

Q: And the “Radiation absorbed dose per administered activity, Pancreas, Total β” value [4, 5]?
A: 5.00E-03 Gy/MBq

Q: And the “Radiation absorbed dose per administered activity, Pancreas, ^209Pb β” value [4, 5]?
A: 8.90E-04 Gy/MBq

Q: What about the “Radiation absorbed dose per administered activity, Pancreas, ^209Tl β + γ” value [4, 5] of the same compound?
A: 1.00E-04 Gy/MBq

Q: And the “Radiation absorbed dose per administered activity, Pancreas, ^213Bi α” value [4, 5]?
A: 2.00E-03 Gy/MBq

Q: What about the “Radiation absorbed dose per administered activity, Pancreas, ^213Bi β” value [4, 5] of the same compound?
A: 4.50E-03 Gy/MBq

Q: And the “Radiation absorbed dose per administered activity, Pancreas, ^213Po α” value [4, 5]?
A: 1.34E-01 Gy/MBq

Q: What about the “Radiation absorbed dose per administered activity, Stomach, Total α” value [4, 5] of the same compound?
A: 6.10E-02 Gy/MBq

Q: And the “Radiation absorbed dose per administered activity, Stomach, Total β” value [4, 5]?
A: 3.00E-03 Gy/MBq

Q: And the “Radiation absorbed dose per administered activity, Stomach, ^209Pb β” value [4, 5]?
A: 2.20E-04 Gy/MBq

Q: And the “Radiation absorbed dose per administered activity, Stomach, ^209Tl β + γ” value [4, 5]?
A: 7.00E-05 Gy/MBq
